Assay results: PMC7928716 (Science Signaling, 2021)
Where two headings read alike, the source gives them in different places. Square brackets hold non-standard residues; d marks the D form. * marks the point of attachment. FITC = O=C1OC2(c3ccc(O)cc3Oc3cc(O)ccc32)c2ccc(NC(=S)*)cc21; pY = N[C@@H](Cc1ccc(OP(=O)(O)O)cc1)C(=O)O; pS = N[C@@H](COP(=O)(O)O)C(=O)O

T1: IRS1 PTB (157–267) (human, UniProt P35568 157-267)
T1 sequence: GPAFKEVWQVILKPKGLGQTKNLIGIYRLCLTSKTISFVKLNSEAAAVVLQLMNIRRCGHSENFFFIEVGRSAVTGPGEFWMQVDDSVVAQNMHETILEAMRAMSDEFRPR

T2: FRS2 PTB (8–136) (human, UniProt Q8WU20 8-136)
T2 sequence: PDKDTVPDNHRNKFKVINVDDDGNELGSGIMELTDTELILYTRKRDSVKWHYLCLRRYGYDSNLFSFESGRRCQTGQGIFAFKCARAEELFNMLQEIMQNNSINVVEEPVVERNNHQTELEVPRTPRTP

T3: DOK1 PTB (151–256) (human, UniProt Q99704 151-256)
T3 sequence: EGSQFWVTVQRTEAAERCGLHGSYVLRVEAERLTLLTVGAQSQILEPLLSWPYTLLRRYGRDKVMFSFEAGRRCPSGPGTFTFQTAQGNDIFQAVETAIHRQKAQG

T4: SNTA1 PDZ (84–171) (human, UniProt Q13424 84-171)
T4 sequence: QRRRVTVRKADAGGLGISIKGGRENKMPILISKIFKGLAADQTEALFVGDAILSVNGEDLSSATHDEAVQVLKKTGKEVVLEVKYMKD

T5: TAX1BP3 PDZ (7–124) (human, UniProt O14907 7-124)
T5 sequence: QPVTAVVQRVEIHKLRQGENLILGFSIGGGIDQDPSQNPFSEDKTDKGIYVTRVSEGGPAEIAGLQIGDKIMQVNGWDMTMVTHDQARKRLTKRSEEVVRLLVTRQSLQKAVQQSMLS

T6: AP2 μ2 (160–435) (human, UniProt Q96CW1 160-435)
T6 sequence: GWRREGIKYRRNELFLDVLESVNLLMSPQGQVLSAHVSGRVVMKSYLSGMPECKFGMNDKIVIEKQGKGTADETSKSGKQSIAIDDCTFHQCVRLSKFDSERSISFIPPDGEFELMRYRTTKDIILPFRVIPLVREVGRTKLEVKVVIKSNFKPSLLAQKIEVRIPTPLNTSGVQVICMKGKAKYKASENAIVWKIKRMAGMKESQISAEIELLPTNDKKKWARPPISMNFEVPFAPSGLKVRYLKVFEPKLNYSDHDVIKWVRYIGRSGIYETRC

B1: FITC-labeled SQSTM1(335–344) probe peptide (peptide)
peptide: {FITC}-DDDWTHLSSK-NH2
B2: FITC-labeled ACE2(787–798) peptide (peptide)
peptide: {FITC}-SKGENNPGFQNT-NH2
B3: FITC-labeled C-terminal peptide of ACE2(796–805) (peptide)
peptide: {FITC}-QNTDDVQTSF-OH
B4: TLN1 PTB (442–770) (domain or fragment)
chain: GVSFFLVKEKMKGKNKLVPRLLGITKECVMRVDEKTKEVIQEWNLTNIKRWAASPKSFTLDFGDYQDGYYSVQTTEGEQIAQLIAGYIDIILK
B5: FITC-labeled ACE2(775–790) peptide, pTyr781 (peptide)
peptide: {FITC}-RSGENP[pY]ASIDISKGE-NH2
B6: NHERF3 PDZ2 (132–224) (domain or fragment)
chain: QPRLCYLVKEGGSYGFSLKTVQGKKGVYMTDITPQGVAMRAGVLADDHLIEVNGENVEDASHEEVVEKVKKSGSRVMFLLVDKETDKRHVEQK
B7: FITC-labeled ACE2(775–790) peptide, unphosphorylated (peptide)
peptide: {FITC}-RSGENPYASIDISKGE-NH2
B8: FITC-labeled ATG9A(4–14) probe peptide (peptide)
peptide: {FITC}-FDTEYQRLEAS-NH2
B9: Mouse SNX17 FERM (109–388) (domain or fragment)
chain: TQQVPTEEVSLEVLLSNGQKVLVTVLTSDQTEDVLEAVAAKLDLPDDLIGYFSLFLVREKEDGAFSFVRKLQEFELPYVSVTSLRSQEYKIVLRKSYWDSAYDDDVMENRVGLNLLYAQTVSDIEHGWILVTKEQHRQLKSLQEKVSKKEFLRLAQTLRHYGYLRFDACVADFPEKDCPVVVSAGNSELSLQLRLPGQQLREGSFRVTRMRCWRVTSSVPLPSGGTSSPSRGRGEVRLELAFEYLMSKDRLQWVTITSPQAIMMSICLQSMVDELMVKKS
B10: FITC-labeled ACE2(775–790) peptide, pSer783 (peptide)
peptide: {FITC}-RSGENPYA[pS]IDISKGE-NH2

Key:
Assay in all cases: fluorescence polarisation
[…]2 ATG8 (2–115) [1] = target: T7, […]2 ATG8 (2–115) (human, UniProt P60520 2-115)
MAP1LC3B ATG8 (2–119) [2] = target: T8, MAP1LC3B ATG8 (2–119) (human, UniProt Q9GZQ8 2-119)
MAP1LC3C ATG8 (2–125) = MAP1LC3C ATG8 (2–125) (human, UniProt Q9BXW4 2-125)
IRS1 PTB (157–267) = target: T1, IRS1 PTB (157–267)
FRS2 PTB (8–136) = target: T2, FRS2 PTB (8–136)
DOK1 PTB (151–256) = target: T3, DOK1 PTB (151–256)
TLN2 PTB (309–401) = TLN2 PTB (309–401) (human, UniProt Q9Y4G6 309-401)
MAGI1 PDZ1 (1–106) = MAGI1 PDZ1 (1–106) (human, UniProt Q96QZ7 1-106)
SNTA1 PDZ (84–171) = target: T4, SNTA1 PDZ (84–171)
SCRIB PDZ1 (718–814) = SCRIB PDZ1 (718–814) (human, UniProt Q14160 718-814)
TAX1BP3 PDZ (7–124) = target: T5, TAX1BP3 PDZ (7–124)
[3] = target: B2
[…]2 ATG8 (2–115) [4] = target: T7, […]2 ATG8 (2–115); remark: listed apart in the source
MAP1LC3B ATG8 (2–119) [5] = target: T8, MAP1LC3B ATG8 (2–119); remark: listed apart in the source
[6] = target: B3
LYN SH2 (106–213) = LYN SH2 (106–213) (human, UniProt P07948 106-213)
AP2 μ2 (160–435) = target: T6, AP2 μ2 (160–435)

T7 sequence (P60520 2-115): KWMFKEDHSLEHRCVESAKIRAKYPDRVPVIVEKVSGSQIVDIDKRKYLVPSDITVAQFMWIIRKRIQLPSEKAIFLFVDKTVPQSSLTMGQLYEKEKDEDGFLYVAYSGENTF
Chain of TLN2 PTB (309–401) (Q9Y4G6 309-401): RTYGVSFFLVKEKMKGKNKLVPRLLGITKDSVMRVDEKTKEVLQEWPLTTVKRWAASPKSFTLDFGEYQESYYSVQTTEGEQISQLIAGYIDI
Chain of MAP1LC3C ATG8 (2–125) (Q9BXW4 2-125): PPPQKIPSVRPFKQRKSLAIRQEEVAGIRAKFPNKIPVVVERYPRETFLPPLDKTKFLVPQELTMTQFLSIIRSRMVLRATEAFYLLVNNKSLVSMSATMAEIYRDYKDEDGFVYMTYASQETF
Chain of SCRIB PDZ1 (718–814) (Q14160 718-814): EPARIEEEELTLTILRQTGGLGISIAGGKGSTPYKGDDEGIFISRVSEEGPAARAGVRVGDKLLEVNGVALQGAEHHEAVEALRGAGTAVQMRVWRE
Chain of MAGI1 PDZ1 (1–106) (Q96QZ7 1-106): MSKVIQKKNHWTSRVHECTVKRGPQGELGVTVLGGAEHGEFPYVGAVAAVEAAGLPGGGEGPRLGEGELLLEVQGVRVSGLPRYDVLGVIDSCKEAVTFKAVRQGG

Work on B1 yielded a Kd ([…]2 ATG8 (2–115) [1]) of 11 µM, a Kd (MAP1LC3B ATG8 (2–119) [2]) of 1.9 µM and a Kd (MAP1LC3C ATG8 (2–125)) of 0.33 µM.

For B2, the Kd (IRS1 PTB (157–267)) was > 100 µM, the Kd (FRS2 PTB (8–136)) was > 100 µM and the Kd (DOK1 PTB (151–256)) was > 100 µM. For the same binder, the Kd (TLN2 PTB (309–401)) was > 100 µM.

For B3, the Kd (MAGI1 PDZ1 (1–106)) was > 100 µM, the Kd (SNTA1 PDZ (84–171)) was > 100 µM and the Kd (SCRIB PDZ1 (718–814)) was > 100 µM. The Kd (TAX1BP3 PDZ (7–124)) was > 100 µM.

B4 was tested, and the Kd [3] was > 100 µM.

B5 was tested, and the Kd ([…]2 ATG8 (2–115) [4]) was > 100 µM and the Kd (MAP1LC3B ATG8 (2–119) [5]) was > 100 µM.

With B6 the Kd [6] was > 100 µM.

In the case of B7, the Kd ([…]2 ATG8 (2–115) [4]) is reported as > 100 µM, the Kd (MAP1LC3B ATG8 (2–119) [5]) is reported as > 100 µM and the Kd (LYN SH2 (106–213)) is reported as > 100 µM.

B8 gave a Kd (AP2 μ2 (160–435)) of 1.64 µM.

In the case of B9, the Kd [3] is reported as ~100 µM.

In the case of B10, the Kd ([…]2 ATG8 (2–115) [4]) is reported as > 100 µM, the Kd (MAP1LC3B ATG8 (2–119) [5]) is reported as > 100 µM and the Kd (LYN SH2 (106–213)) is reported as > 100 µM.
